According to US20230312721A1 (published 2023):

T1: 4Ig human B7-H3 (human, UniProt Q5ZPR3 29-466, limits assumed)
T1 construct: Soluble analyte in SPR; also called 4Ig-B7H3; 4Ig B7H3
T1 sequence: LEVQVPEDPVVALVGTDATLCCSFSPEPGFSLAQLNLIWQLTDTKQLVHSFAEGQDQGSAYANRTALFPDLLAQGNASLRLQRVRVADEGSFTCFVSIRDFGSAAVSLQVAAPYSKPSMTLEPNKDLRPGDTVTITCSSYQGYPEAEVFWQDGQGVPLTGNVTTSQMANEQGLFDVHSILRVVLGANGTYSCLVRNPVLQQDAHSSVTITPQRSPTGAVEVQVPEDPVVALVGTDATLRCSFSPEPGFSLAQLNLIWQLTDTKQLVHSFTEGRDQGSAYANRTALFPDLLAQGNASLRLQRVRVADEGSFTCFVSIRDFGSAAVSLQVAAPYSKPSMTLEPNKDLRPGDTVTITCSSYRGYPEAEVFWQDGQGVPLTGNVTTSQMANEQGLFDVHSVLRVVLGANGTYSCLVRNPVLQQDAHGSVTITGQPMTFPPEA


Target: T1, 4Ig human B7-H3
Assay: SPR, Carterra LSA; antibody captured on anti-human Fc lawn, 4Ig human B7-H3 as analyte
Protocol: Chimeric and humanized antibodies were generated using CDR grafting methods using closely homologous human germline sequences. Six different humanized VH and four humanized VL sequences were combined to generate 24 different humanized IgG1 antibodies. The antibodies were expressed in HEK293 cells and purified using Protein A resin. Antibodies were buffer exchanged into PBS and quantified by OD280 and titer was calculated. Sample purity and aggregation status was determined by analytical Size Exclusion Chromatography (SEC-HPLC), which separates molecules based on molecular mass and hydrodynamic volume. Area % of each peak is calculated based on total area of the peaks. Peak symmetry is calculated to determine the peak fronting (<1) or tailing (>1). A column of 300A pore size was used for detection at 280 nm and PBS as the running buffer. Surface plasmon resonance studies to assess binding affinities were carried out on a Carterra LSA instrument. An anti-human Fc antibody “lawn” was prepared on a HC30M chip by amine coupling. The chip was activated with equal volume of 100 mM MES pH 5.5, 100 mM S-NHS and 400 mM EDC. The anti-human IgG Fc antibody was immobilized. The chip was deactivated with 1 M ethanolamine pH 8.5. Antibodies were diluted and printed onto the anti-human Fc lawn. An 8-point series of 4Ig human B7-H3 was prepared.
The characterization data, including expression titers (mg of purified protein per L of culture), purity (% monomer peak by analytical SEC-HPLC) and affinity measurement by SPR (ka, kd and KD) are summarized in Table 1 and FIG. 1-4.

Row | Binder | Kd | koff | kon
1 | L3H1 (antibody, human IgG1, kappa, V domains shown, Humanized IgG1, HEK293; chains tied by the L/H names; also called YB8 L3 + YB8 H1) VH: QVQLVQSGAEVKKPGASVKVSCKASGYTFTNYDINWVRQATGQGLEWIGWIFPGDGSTQYNEKFQGRVTLTTNTSISTAYMELSSLRSEDTAVYYCARQTTATWFAYWGQGTLVTVSS VL: EIVMTQSPDFQSVTPKEKVTLTCRASQSISDYLHWYQQKPDQSPKLLIKYASQSISGVPSRFSGSGSGSDFTLTINSLEAEDAGVYYCQNGHSFPLTFGQGTKLEIKR | 10 nM | 0.00034 s⁻¹ | 34000 M⁻¹ s⁻¹
2 | L2H4 (antibody, human IgG1, kappa, Humanized IgG1, HEK293; chains tied by the L/H names; Lead candidate; also called YB8 L2 + YB8 H4) heavy: not shown light: EIVMTQSPDFQSVTPKEKVTITCRASQSISDYLHWYQQKPDQSPKLLIKYASQSISGVPSRFSGSGSGSDFTLTINSLEAEDAATYYCQNGHSFPLTFGQGTKLEIKRTVAAPSVFIFPPSDEQLKSGTASVVCLLNNFYPREAKVQWKVDNALQSGNSQESVTEQDSKDSTYSLSSTLTLSKADYEKHKVYACEVTHQGLSSPVTKSFNRGEC | 8.2 nM | 0.00036 s⁻¹ | 44000 M⁻¹ s⁻¹
3 | L1H2 (antibody, human IgG1, kappa, Humanized IgG1, HEK293; chains tied by the L/H names; also called YB8 L1 + YB8 H2) heavy: not shown light: EIVLTQSPDFQSVTPKEKVTLTCRASQSISDYLHWYQQKPDQSPKLLIKYASQSISGVPSRFSGSGSGSDFTLTINSLEAEDAATYYCQNGHSFPLTFGQGTKLEIKRTVAAPSVFIFPPSDEQLKSGTASVVCLLNNFYPREAKVQWKVDNALQSGNSQESVTEQDSKDSTYSLSSTLTLSKADYEKHKVYACEVTHQGLSSPVTKSFNRGEC | 14 nM | 0.00041 s⁻¹ | 29000 M⁻¹ s⁻¹
4 | L1H4 (antibody, human IgG1, kappa, Humanized IgG1, HEK293; chains tied by the L/H names; also called YB8 L1 + YB8 H4) heavy: not shown light: EIVLTQSPDFQSVTPKEKVTLTCRASQSISDYLHWYQQKPDQSPKLLIKYASQSISGVPSRFSGSGSGSDFTLTINSLEAEDAATYYCQNGHSFPLTFGQGTKLEIKRTVAAPSVFIFPPSDEQLKSGTASVVCLLNNFYPREAKVQWKVDNALQSGNSQESVTEQDSKDSTYSLSSTLTLSKADYEKHKVYACEVTHQGLSSPVTKSFNRGEC | 9.5 nM | 0.00041 s⁻¹ | 43000 M⁻¹ s⁻¹
5 | L3H4 (antibody, human IgG1, kappa, V domains shown, Humanized IgG1, HEK293; chains tied by the L/H names; also called YB8 L3 + YB8 H4) VH: QVQLVQSGAEVKKPGASVKVSCKASGYTFTNYDINWVRQATGQGLEWIGWIFPGDGSTQYNEKFQGRVTMTTNTSISTAYMELSSLRSEDTAVYFCARQTTATWFAYWGQGTLVTVSS VL: EIVMTQSPDFQSVTPKEKVTLTCRASQSISDYLHWYQQKPDQSPKLLIKYASQSISGVPSRFSGSGSGSDFTLTINSLEAEDAGVYYCQNGHSFPLTFGQGTKLEIKR | 8.4 nM | 0.00033 s⁻¹ | 40000 M⁻¹ s⁻¹
6 | L3H2 (antibody, human IgG1, kappa, V domains shown, Humanized IgG1, HEK293; chains tied by the L/H names; also called YB8 L3 + YB8 H2) VH: QVQLQQSGAEVKKPGASVKVSCKASGYTFTNYDINWVRQATGQGLEWIGWIFPGDGSTQYNEKFKGRATLTRNTSISTAYMELSSLRSEDTAVYYCARQTTATWFAYWGQGTLVTVSS VL: EIVMTQSPDFQSVTPKEKVTLTCRASQSISDYLHWYQQKPDQSPKLLIKYASQSISGVPSRFSGSGSGSDFTLTINSLEAEDAGVYYCQNGHSFPLTFGQGTKLEIKR | 11 nM | 0.00035 s⁻¹ | 32000 M⁻¹ s⁻¹
7 | L1H6 (antibody, human IgG1, kappa, Humanized IgG1, HEK293; chains tied by the L/H names; also called YB8 L1 + YB8 H6) heavy: not shown light: EIVLTQSPDFQSVTPKEKVTLTCRASQSISDYLHWYQQKPDQSPKLLIKYASQSISGVPSRFSGSGSGSDFTLTINSLEAEDAATYYCQNGHSFPLTFGQGTKLEIKRTVAAPSVFIFPPSDEQLKSGTASVVCLLNNFYPREAKVQWKVDNALQSGNSQESVTEQDSKDSTYSLSSTLTLSKADYEKHKVYACEVTHQGLSSPVTKSFNRGEC | 25 nM | 0.00066 s⁻¹ | 26000 M⁻¹ s⁻¹
8 | L1H5 (antibody, human IgG1, kappa, Humanized IgG1, HEK293; chains tied by the L/H names; also called YB8 L1 + YB8 H5) heavy: not shown light: EIVLTQSPDFQSVTPKEKVTLTCRASQSISDYLHWYQQKPDQSPKLLIKYASQSISGVPSRFSGSGSGSDFTLTINSLEAEDAATYYCQNGHSFPLTFGQGTKLEIKRTVAAPSVFIFPPSDEQLKSGTASVVCLLNNFYPREAKVQWKVDNALQSGNSQESVTEQDSKDSTYSLSSTLTLSKADYEKHKVYACEVTHQGLSSPVTKSFNRGEC | 11 nM | 0.00042 s⁻¹ | 39000 M⁻¹ s⁻¹
9 | L1H3 (antibody, human IgG1, kappa, Humanized IgG1, HEK293; chains tied by the L/H names; also called YB8 L1 + YB8 H3) heavy: not shown light: EIVLTQSPDFQSVTPKEKVTLTCRASQSISDYLHWYQQKPDQSPKLLIKYASQSISGVPSRFSGSGSGSDFTLTINSLEAEDAATYYCQNGHSFPLTFGQGTKLEIKRTVAAPSVFIFPPSDEQLKSGTASVVCLLNNFYPREAKVQWKVDNALQSGNSQESVTEQDSKDSTYSLSSTLTLSKADYEKHKVYACEVTHQGLSSPVTKSFNRGEC | 8.1 nM | 0.00035 s⁻¹ | 43000 M⁻¹ s⁻¹
10 | L3H3 (antibody, human IgG1, kappa, V domains shown, Humanized IgG1, HEK293; chains tied by the L/H names; also called YB8 L3 + YB8 H3) VH: QVQLVQSGAEVKKPGASVKVSCKASGYTFTNYDINWVRQATGQGLEWMGWIFPGDGSTQYNEKFKGRVTLTRNTSISTAYMELSSLRSEDTAVYFCARQTTATWFAYWGQGTLVTVSS VL: EIVMTQSPDFQSVTPKEKVTLTCRASQSISDYLHWYQQKPDQSPKLLIKYASQSISGVPSRFSGSGSGSDFTLTINSLEAEDAGVYYCQNGHSFPLTFGQGTKLEIKR | 9.7 nM | 0.00032 s⁻¹ | 32000 M⁻¹ s⁻¹

Second part, the binder after the results:

Row | Kd | koff | kon | Binder
11 | 10 nM | 0.00079 s⁻¹ | 78000 M⁻¹ s⁻¹ | chimeric anti-B7H3 IgG (Chimeric Heavy Chain (Parental) + Chimeric Light chain (parental)) (antibody, V domains shown, Chimeric IgG1 with murine 8H9 variable domains, expressed in HEK293; also called Chimeric IgG; parental chimeric antibody) VH: QVQLQQSGAELVKPGASVKLSCKASGYTFTNYDINWVRQRPEQGLEWIGWIFPGDGSTQYNEKFKGKATLTTDTSSSTAYMQLSRLTSEDSAVYFCARQTTATWFAYWGQGTLVTVSA VL: DIVMTQSPATLSVTPGDRVSLSCRASQSISDYLHWYQQKSHESPRLLIKYASQSISGIPSRFSGSGSGSDFTLSINSVEPEDVGVYYCQNGHSFPLTFGAGTKLELKR
12 | 24 nM | 0.00051 s⁻¹ | 21000 M⁻¹ s⁻¹ | L2H6 (antibody, human IgG1, kappa, Humanized IgG1, HEK293; chains tied by the L/H names; also called YB8 L2 + YB8 H6) heavy: not shown light: EIVMTQSPDFQSVTPKEKVTITCRASQSISDYLHWYQQKPDQSPKLLIKYASQSISGVPSRFSGSGSGSDFTLTINSLEAEDAATYYCQNGHSFPLTFGQGTKLEIKRTVAAPSVFIFPPSDEQLKSGTASVVCLLNNFYPREAKVQWKVDNALQSGNSQESVTEQDSKDSTYSLSSTLTLSKADYEKHKVYACEVTHQGLSSPVTKSFNRGEC
13 | 15 nM | 0.00043 s⁻¹ | 31000 M⁻¹ s⁻¹ | L1H1 (antibody, human IgG1, kappa, Humanized IgG1, HEK293; chains tied by the L/H names; also called YB8 L1 + YB8 H1) heavy: not shown light: EIVLTQSPDFQSVTPKEKVTLTCRASQSISDYLHWYQQKPDQSPKLLIKYASQSISGVPSRFSGSGSGSDFTLTINSLEAEDAATYYCQNGHSFPLTFGQGTKLEIKRTVAAPSVFIFPPSDEQLKSGTASVVCLLNNFYPREAKVQWKVDNALQSGNSQESVTEQDSKDSTYSLSSTLTLSKADYEKHKVYACEVTHQGLSSPVTKSFNRGEC
14 | 11 nM | 0.00041 s⁻¹ | 39000 M⁻¹ s⁻¹ | L2H1 (antibody, human IgG1, kappa, Humanized IgG1, HEK293; chains tied by the L/H names; also called YB8 L2 + YB8 H1) heavy: not shown light: EIVMTQSPDFQSVTPKEKVTITCRASQSISDYLHWYQQKPDQSPKLLIKYASQSISGVPSRFSGSGSGSDFTLTINSLEAEDAATYYCQNGHSFPLTFGQGTKLEIKRTVAAPSVFIFPPSDEQLKSGTASVVCLLNNFYPREAKVQWKVDNALQSGNSQESVTEQDSKDSTYSLSSTLTLSKADYEKHKVYACEVTHQGLSSPVTKSFNRGEC
15 | 9.4 nM | 0.0004 s⁻¹ | 42000 M⁻¹ s⁻¹ | L2H5 (antibody, human IgG1, kappa, chains tied by the L/H names; Selected lead; also called YB8-L2H5; YB8 L2 + YB8 H5) heavy: not shown light: EIVMTQSPDFQSVTPKEKVTITCRASQSISDYLHWYQQKPDQSPKLLIKYASQSISGVPSRFSGSGSGSDFTLTINSLEAEDAATYYCQNGHSFPLTFGQGTKLEIKRTVAAPSVFIFPPSDEQLKSGTASVVCLLNNFYPREAKVQWKVDNALQSGNSQESVTEQDSKDSTYSLSSTLTLSKADYEKHKVYACEVTHQGLSSPVTKSFNRGEC
16 | 11 nM | 0.00037 s⁻¹ | 33000 M⁻¹ s⁻¹ | L2H2 (antibody, human IgG1, kappa, Humanized IgG1, HEK293; chains tied by the L/H names; also called YB8 L2 + YB8 H2) heavy: not shown light: EIVMTQSPDFQSVTPKEKVTITCRASQSISDYLHWYQQKPDQSPKLLIKYASQSISGVPSRFSGSGSGSDFTLTINSLEAEDAATYYCQNGHSFPLTFGQGTKLEIKRTVAAPSVFIFPPSDEQLKSGTASVVCLLNNFYPREAKVQWKVDNALQSGNSQESVTEQDSKDSTYSLSSTLTLSKADYEKHKVYACEVTHQGLSSPVTKSFNRGEC
17 | 9.9 nM | 0.00034 s⁻¹ | 34000 M⁻¹ s⁻¹ | L2H3 (antibody, human IgG1, kappa, Humanized IgG1, HEK293; chains tied by the L/H names; Lead candidate; also called YB8 L2 + YB8 H3) heavy: not shown light: EIVMTQSPDFQSVTPKEKVTITCRASQSISDYLHWYQQKPDQSPKLLIKYASQSISGVPSRFSGSGSGSDFTLTINSLEAEDAATYYCQNGHSFPLTFGQGTKLEIKRTVAAPSVFIFPPSDEQLKSGTASVVCLLNNFYPREAKVQWKVDNALQSGNSQESVTEQDSKDSTYSLSSTLTLSKADYEKHKVYACEVTHQGLSSPVTKSFNRGEC
